Results: the RNAGym collection of RNA variant scans (doi:10.7554/elife.90254)

B1: LINE1-full (parent)
chain: UACGUAGGUGGUUUUCCCCUGAUAGUGCUAAGGGGGCCUGGAAGUUUGGACUGGGCAGAGCUCAACACAGCGUGGCAAAGUGGCUGUGGCUAGACUGCCUCUCUGGAUUCCUCGUCACUCAGCAGGGCAUCUCUGAGAGAAAUGCC

Variants of: B1
Test: self-cleavage, relative activity (ratio to wild type); higher = more cleavage; in vitro, sequencing; the parent is a self-cleaving ribozyme

Row | Variant | self-cleavage
1 | U46C A107U | 1.53
2 | U23C G126A | 1.18
3 | G60A C61G | 0.04
4 | A2G A94C | 0.29
5 | U45G A57U | 0.18
6 | U73C G144A | 1.77
7 | U87C U132A | 0.33
8 | C19U A138U | 1.24
9 | U1A A22U | 0.41
10 | U1C U52C | 1.38
11 | A57U A121G | 0.15
12 | A57G U73A | 0.37
13 | U20C C113U | 1.62
14 | U20C C95A | 0.09
15 | G72U U87C | 0.32
16 | U81A C120U | 0.99
17 | U9A U134C | 1.4
18 | U1A G34C | 1.08
19 | C16A A79G | 0.62
20 | U39C U109A | 1.15
21 | U12C A78C | 2.54
22 | U45C U100A | 0.58
23 | A59G U62A | 0.06
24 | U81C A94U | 0.37

Row | Variant | self-cleavage
25 | C76U G105C | 2.51
26 | U9A U73G | 1.29
27 | A67C C110A | 0.05
28 | U20A U85G | 0.1
29 | C19U U134C | 1.09
30 | U15A G53U | 0.72
31 | U26A A121U | 1.11
32 | C38U U46C | 1.51
33 | G34U C90U | 0
34 | A69U G93A | 0.03
35 | U5C A57U | 0.29
36 | U52A A78U | 2.37
37 | A69G U134C | 0.44
38 | A69G U115G | 0.57
39 | A24G U130C | 1.47
40 | C19U G58U | 0.09
41 | U62C U91A | 0.08
42 | U15A A24U | 1.12
43 | A2G A6G | 0.68
44 | U91C C95A | 0.08
45 | G10A U14C | 1.45
46 | A67G A117U | 0.53
47 | G21A C145U | 0.32
48 | U85G U112A | 0.26

Row | Variant | self-cleavage
49 | C66G A117G | 0.08
50 | U47A U85G | 0.17
51 | G54A A136G | 0.62
52 | G32A C128A | 0.61
53 | U108G U112C | 2.58
54 | G7U A124G | 1.19
55 | A22G A142U | 0.92
56 | A57U G127A | 0.1
57 | U39A A42G | 1.21
58 | U26A A141G | 1.11
59 | U15A U52C | 0.9
60 | U62C A64G | 0.08
61 | U46C A92U | 0.76
62 | U20G A107G | 0.72
63 | U46C U112C | 1.78
64 | U46C U112A | 1.26
65 | U15C U45C | 1.55
66 | U15A A31G | 0.55
67 | A24U U85C | 0.15
68 | U52A G82U | 1.26
69 | A57G U87C | 0.11
70 | U45A A136U | 1.9
71 | U13C U91A | 0.85
72 | G127A C146U | 1.43

Row | Variant | self-cleavage
73 | A67U A140G | 0.09
74 | U13C U45G | 1.46
75 | A2U A64U | 0.37
76 | G35C U91C | 0.81
77 | U14C A57U | 0.06
78 | U15C A64G | 0.36
79 | A77U U100C | 1.58
80 | A64U | 0.41
81 | U12G A43G | 1.41
82 | A30G C63U | 0.51
83 | A94C A124G | 0.02
84 | A2C | 1.24
85 | U62A U102C | 0.01
86 | G7A C56U | 0.17
87 | U87A A94U | 0.04
88 | U112C U134C | 1.23
89 | A64G A124U | 0.29
90 | A31G G139A | 1.19
91 | A124G A142U | 0.94
92 | A57G A129G | 0.74
93 | A6U U115C | 1.28
94 | C123G U132C | 1.43
95 | U5A A141G | 1.23
96 | G4A U46A | 1.17

Row | Variant | self-cleavage
97 | A78G U81A | 0.47
98 | U81C A92U | 0.95
99 | A50G U119A | 0.96
100 | U45C G93U | 0.03
101 | U85C G125C | 0.29
102 | U109C U134A | 0.22
103 | G7C U102C | 0
104 | A77U A142G | 1.46
105 | G126A A138U | 1.33
106 | U15A U102A | 1.05
107 | U1A U115C | 1.3
108 | G97A U132C | 0.11
109 | A69G G122A | 0.4
110 | A64U U91C | 0.18
111 | G55U U85A | 0.03
112 | U45G G49A | 1.25
113 | U9G U102A | 1.44
114 | U14C A69G | 0.6
115 | A79C U96C | 0.11
116 | G33U G75U | 0.91
117 | G7U U20C | 1.15
118 | U29C A77C | 0.85
119 | C120U C123A | 1.78
120 | U26A U91C | 0.32

Row | Variant | self-cleavage
121 | C110A U112C | 1.56
122 | G10U U91C | 0.44
123 | U100C G126U | 1.37
124 | A57U U62G | 0
125 | C61U U104A | 0.02
126 | G40A U119A | 0.94
127 | A6G A30G | 1.14
128 | C103A A142G | 1.41
129 | A67U C146A | 0.14
130 | A69C | 0.07
131 | A129U G139A | 1.53
132 | G137U | 1.31
133 | A64U U104C | 0.62
134 | U13C C103U | 1.06
135 | G35A A107U | 1.41
136 | U1G U39C | 0.72
137 | A117G C118U | 1.44
138 | U14C U104C | 1.51
139 | A43G C146U | 1.69
140 | U1A A121G | 1.73
141 | A31G A117U | 1
142 | G27A U102C | 0.84
143 | U45C G72A | 1.25
144 | G10A U12C | 1.04

Row | Variant | self-cleavage
145 | G55A A140G | 0.17
146 | G70U A121G | 0.27
147 | G33C U45C | 1.95
148 | C19U A77G | 1.68
149 | U73C U112G | 2.63
150 | G72U C116A | 1.23
151 | U46C C68U | 0.44
152 | A6U A92G | 0.27
153 | G106A A141G | 1.16
154 | U29G U47A | 1.41
155 | A50U A121G | 1.09
156 | A24U U119A | 1.09
157 | U12C A67U | 0.21
158 | G144A | 1.23
159 | A42G G55A | 0.29
160 | C18U A117G | 1.72
161 | G34A U47C | 1.18
162 | U47G U81A | 1.81
163 | U73C U102C | 1.11
164 | U85A U134A | 0.06
165 | G4A | 0.89
166 | G74A A141G | 0.97
167 | A107U A142G | 2.36
